Consider three proteins from patent US20240158831A1 (PROMEGA, published 2024).

To fix the notation:
B1: OgLuc variant C1+A4E, HQHQHQ N-terminally tagged (enzyme)
chain: HQHQHQMVFTLEDFVGDWRQTAGYNQDQVLEQGGLSSLFQKLGVSVTPIQKIVLSGENGLKFDIHVIIPYEGLSGFQMGLIEMIFKVVYPVDDHHFKIILHYGTLVIDGVTPNMIDYFGRPYEGIAVFDGKKITVTGTLWNGNKIIDERLINPDGSLLFRVTINGVTGWRLCERILA
notes: Purified from E. coli KRX with the HISLINK system
B2: OgLuc variant 9B8, HQHQHQ N-terminally tagged (enzyme)
chain: B1 chain with Q26L, F62I, F76Y, L80Q, M83K, I98V
notes: as for B1
B3: OgLuc variant L27V (9B8 opt+K33N+L27V+T39T+K43R+Y68D) (enzyme)
chain: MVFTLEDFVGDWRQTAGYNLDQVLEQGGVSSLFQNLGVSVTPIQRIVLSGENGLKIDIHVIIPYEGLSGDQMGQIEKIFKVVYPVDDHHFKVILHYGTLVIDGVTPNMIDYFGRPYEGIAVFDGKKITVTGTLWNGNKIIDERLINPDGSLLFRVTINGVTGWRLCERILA
notes: Expressed as a HaloTag fusion (pFN18A) in E. coli KRX and purified with the HaloTag Protein Purification System; It eluted as a 24 kDa protein

Changes are numbered by the printed parent chain. Names and notes keep the numbering of the source.

This series deals with the molecule itself. The series is described as follows: gel filtration chromatography (Superdex 200 5/150 GL), self-association. The text has this: Gel filtration analysis was used to verify the expected molecular weight of the purified OgLuc proteins based on the theoretical values and consequently to determine their oligomeric state. A comparison between the relative hydrodynamic volume of the OgLuc variants C1+A4E and 9B8 was made by gel filtration chromatography. For this analysis, the nucleotide sequence for the OgLuc variants, C1+A4E and 9B8, were cloned into a HQ-Tagged FLEXI® Vector (Promega Corp.) to create a HQHQHQ N-terminally tagged protein that was overexpressed in E. coli KRX cells. The overexpressed proteins were purified using the HISLINK™ Protein Purification System (Promega Corp.) according to manufacturer's instructions. Samples of each individual standard and sample protein were analyzed by gel filtration chromatography, which was performed at 24° C. on an Agilent 1200 HPLC, using a Superdex 200 5/150 GL column (GE Healthcare) with a flow rate of 0.25 mL/min (FIGS. 43A-B). The mobile phase (i.e., running buffer) consisted of 50 mM Tris and 150 mM NaCl, pH 7.5. Protein elution was monitored at 214 and 280 nm. A standard calibration curve was generated using: 1) Ovalbumin, 43 kDa (GE Healthcare), 2) Carbonic Anhydrase, 29 kDa (Sigma) and 3) Myoglobin, 17 kDa (Horse Heart, Sigma). The molecular weights of the purified proteins were calculated directly from the calibration curve.
The relative hydrodynamic volume of the L27V variant was made by gel filtration chromatography. For this analysis, the nucleotide sequence for the L27V variant was cloned into a HaloTag® vector pFN18A (Promega Corp.) to create a HaloTag®-terminally tagged protein that was overexpressed in E. coli KRX cells (Promega Corp.). The overexpressed protein was purified using the HaloTag® Protein Purification System (Promega Corp.) according to manufacturer's instructions. Samples of each individual standard and sample protein were analyzed by gel filtration chromatography performed at 24° C. on an Agilent 1200 HPLC using a Superdex 200 5/150 GL column (GE Healthcare) with a flow rate of 0.25 mL/min (FIG. 56).
In general terms: In gel filtration, larger molecules generally elute earlier.
Turning to B1, the binding result is recorded as “binds”.

Consider B2, for which the binding result is recorded as “no binding”.

Take B3: the binding result was “no binding”.
